# According to the nanobody polyreactivity screen of Harvey et al. (2022):
# Test: yeast display, Sf9 membrane polyspecificity reagent, FACS + sequencing; frameworks hold sequencing errors
# Procedure, shortened: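 In a synthetic yeast display library (Saccharomyces cerevisiae BJ5465), nanobody expression was induced with galactose for 36–48 hours. FACS gates were set low and high (top ~1%) using anti-HA fluorescence for expression and streptavidin fluorescence for binding of the Sf9 membrane reagent. Each polyreactivity label is drawn from the gate of origin.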
row,Sequence,polyreactivity (PSR sort gate)
1,QVQLQESGGGLVQAGGSLRLSCAASGYIFPRIYMGWYRQAPGKEREFDAGISYDAITNYADSVKGRFTISLDNAKNTVYLQMNSLKPEDTAVYYCAVSYYGTPLFTYWGQGTQVTVSS,high polyreactivity
2,QVQLEESGGGLVQAGGSLRLSSAASGRIYTKNAMGRYRHAPGKERELVAAITTSGGSTYYADSVKGRFTISRDNAKNSVYLQMKSLKPEDTAVYYCAAERYNGYDYWGQGTQVSVSS,high polyreactivity
3,QVQLVESGGGLVQAGGSLRLSSASSGFTFTFYAMGWYRQEPGKERELVAAISKGGGSTSYADSVKGRFTISRDNAKNTVYLQMNCLKPEETAVYYCAARYYYSRSRLYYYWGQGTQVTVSS,high polyreactivity
4,QVQLVESGGGLVQAGGSLRLSCAASGRTFEQYAMGWSRQAPGKERELVAAISGSGGSTFYADSVKGRFTISRDNAKNTVYLQMNSLKPEDTAVYYCNAPGDGYLYDHTYDYWGQGTQVTVSS,low polyreactivity
5,QVQLVESGGGLVQAGGSLRLSCAASGFISYFYAMGWYRQAPGKERELVAAISWNGARTYYADSVKGRFTISRDNAKNTVYLQMNSLKPEDTAVYYCNAGTFTRRRGLDYWGQGTQVTVSS,low polyreactivity
6,QVQLVESGGGLVQAGGSLRISCAASGSIFRYYYMGWYSQAPGKERELVAAITYSGGGTYYADSVKGRFTISRDNAKNTVYLQMNSLKAEDTAVYYCAVRRVGSIYIDRYIYVVSDYFYWGNGTQVTVSS,low polyreactivity
7,QVQLVESGGGLVQAGGSIRLSCAASGSISPQNVMGWYRQAHGKERELVAAITGGGSTNYADSVKGRFTISRDNAKNTVYLQMNSLIPEDTAVYYCAADGRYAYGYNHWGQGTQVTVSS,low polyreactivity
8,QVQLVESGGGLVQAGGSLRLSCAASGSIFKRYAMGWYRHAPGKERELVAAISYSGGSTNYADSVKGRFTISRDNAKNTVYLQMNSLKPEDTAVYYCAKRSTSRGYDYWGQGTQVTVSS,high polyreactivity
9,QVQLVESGGGLVQAGGSLRLSCAASGLIFTYYAMGWYRQAPGKERELVAGISSGTNTNYADSVKGRFTISRDNAKNTVYLQMNSLKPEDTAVYYCAKTRGYQFVAYGYWGQGTQVTVSS,low polyreactivity
10,QVQLVESGGGLVQAGVSLRLSCAASGFTFTTYVMGSYRQAPGKERELVAAISRRGTSTRYADSVKGRFTISRDNAKNTVYLQMNSLKPEDTAVYYCAADRPYSIVPYDYWGQGTQVTVSS,high polyreactivity
11,QVQLVESGGGLVQAGGSLRLSCAASGSTFQWYAMGWYRQAPGKERELVAAISNGVSTNYADSVKGRFTISRDNAKNTVYLHMNSLKPEDTAVYYCAADAYPYYQSYYPFEYLGQGTQVTVSS,low polyreactivity
12,QVQLVESGGGLVQAGGSLRLSCAASGITFYYNAMGWYRQAPGKERELVAAIRSAGSTYYADSVKGRFTISRDNAKNTVYLQMNSLKPEDTAVYYCAAEDGTTDQVRVYWIMDYWGQGTQVTVSS,low polyreactivity
13,QVQLVESGGGLVQAGGSLRLSCAASGFIFFQYAMGWYRQAPGKERELVAAITARSGSTYYADSVKGRFTISRDNAKNTVYLQMNSLKPEDTAVYYCAARPRYYRWGPLDYWGQGTQVTVSS,high polyreactivity
14,QVQRVESGGGIVQAGGSHRLSCAASGSIFRYYAMGWYRQAPGKEREFVAAISSSGGSTYYADSVKGRFTISRDNAKNTVYLQMNSLKPEDTAVYYCARDWPSYYARQYDYWGQGTQVTVSS,high polyreactivity
15,QVQLLESGGGLVKAGGSLRLSCPASGIIFYEYVMGWYRQAPGKERELVAAINRSGGSKYYADSVKGRFTISRDNAKNTVYLQMNSLKPEDTAVYYCAAKPYYFYGMDYWGQGTQVTVSS,high polyreactivity
16,QVQLVESGGGLVQAGGSLRLSCAASGSTFYYYTMGWYRQAPGKERELVASISGNVGSTSYADSVKGRFTISRDNAKNTVYLQMNSLKPEDTAVYYCNTDWGYYHSPDSDYWGQGTQVTVSS,low polyreactivity

row,Sequence,polyreactivity (PSR sort gate)
1,QVQLVESGGGLVQAGGSLRLSCAASGSNFRSNAMGWYRQAPGKERELVAAISRRGGSTYYADSVKGRFRISRDIAKNTVYLQMNSLKPEDTAVYYCAAPTIVSGHDSWGQGTQVTVSS,high polyreactivity
2,QVQLVESGGGLVQAGGSLRLTCAASGIIFYIYAMGWYRQAPGKERELVAGISWRGGSTSYADSVKGRFTISRDNAKNTVYLQMNSLKPEDTAVYYCAAEVYSWDGYDYWGQGTQVTVSS,low polyreactivity
3,QVQLVESGGGLVQAGGSLRLSCAASGRTFYSNAMGWYRQAPGKERELVATISSGGSTNYADSVKGRFTISRDNAKNTVYLQMNSLKPEDTAVYYCATRPDRINDYWGQGTQVTVSS,low polyreactivity
4,QVQLVESGGGLVQAGGSLRLSCAASGFIFRKYGMGWYRQAPGKERELVAAIRFTGGSTRYADSVKGRFTISRDNAKNTVYLQMNSLKPEDTAVYYCNADRVYVRGRFTYDYWGQGTQVTVSS,low polyreactivity
5,QVQLVESGGGLVQAGGSLRLSCAASGRIFLVNTMGWYRQAPGKERELVATITFSVVRTYYADSVKGRFTISRDNAKNSVYLQMNSLKPEVTAVYYCAKQHLVSVPEMYYWGQGTQVTVSS,low polyreactivity
6,QVQLVESGGGLVQAGGSLRLSCAASGSTFRVYAMGWYRQAPGKERELVAAITRIGGRTYYADSVKGRFTISRDNAKNTVYLQMNSLKPEDTAVYYCAARYPGGYSSGYNYWGQGTQVTVSS,high polyreactivity
7,QVQLVESGGGLVQEGGSLRLSCAASGSTFGLYAMGWYRQAPGKERELVAAISSRGSRTYYADSVKGRFTISRDNAKNTVYLQMNSLKPEDTAVYYCNAMYASCVRHKVTYDYWGQGTLVTVSS,high polyreactivity
8,QVQLVESGGGLVQAGGSLRLSCAASGYTFGEYAMGWYRQAPGKERELVATISLSDGSTNYADSVKGRFTISRDNAKNTVYLQMNSLKPEDTAVYYCATETQQALYGSVLKYNYWGQGTQVTVSS,low polyreactivity
9,QVHLVESGGGLDQAGGSLRLSCAASGSISLIYAMGWYRQAPGKERELVAAITSSGGSTYYADSVKGRFTISRDNAKNTVYLQMNSLKREDTAVYYCAAERWTRRHYSGNDYWGQGTQVTVSS,low polyreactivity
10,QVQLVESGGGLVQAGGSLRLSCAASGSTFSYYAMGWYRQAPGKERELVAAITTSGGRTYYADSVKGRFTISRDNAKFTVYLQMNSLKPEDTAVYYCNARSGRLGDYWGQGTQVTVSS,high polyreactivity
11,QVQLVESGGGLVQAGGSLRLSCASSGSTFPEYAMGWYRQAPGKERELVAVISFGDGNTYYADSVKGRFTISRDNAKNTVYLQMNSLKPEDTAVYYCNAADDSVDQSVRTLRQYEYWGQGTQVTVSS,low polyreactivity
12,QVQLVESGGGLVQAGGSLRLSCAASGFNFARNTMGWYRQAPGKERELVAAISSSGGSTYYADSVKGRFTISRDNAKNTVYLQMNSLKPEDTAVYYCNKGYTGLYGYDYWGQGTQVTVSS,high polyreactivity
13,QVQLVESGGGLVQAGGSLRLSCAASGSIFYHYAMGWYRQAPGKEREFVAAITRRGTSTYYADSVKGRFTISRDNAKNTVYLQMNSLKPEDTAVYYCAARYGPNMDYCGQGTQVTVSS,high polyreactivity
14,QVQLVESGGGLVQAGGSLRLSCAASGRIFKPYAMGWYRQAPGKERELVAAITDGGTTYYADSVKGRFTISRDNAKNTVYLQMNSLKPEDTAVYYCAADLGKLRYDYWGPGTQVTVSS,low polyreactivity
15,QVHLVESGGGLVQAGRSLRLSCAASGLTFGTNPMGWYRQAPGKERELVAAITWRGGSTSYADSVKGRFTISRDNAKNTVYLQMNSLKPEDTAVYYCAVRLRYPGNTFYDWGQGTQVTVSS,high polyreactivity
16,QVQLVESGGGLVQAGGSLRLSCAASVRTFYYYAMGWYRQAPGKERELVAAIRWSTGSTYYADSVKGRFTISRDNAQNTVYLQMNSLKPEDTAVYYCAADTWYIQWGYYWGQGTQVTVSS,low polyreactivity
